Measured values: US20130273058A1
[ ]: non-standard residue; d: D form. The star is where a group is joined. Palmitoyl = CCCCCCCCCCCCCCCC(=O)*

Target: GFP-tagged beta-catenin (UniProt P35222)
Assay: microscale thermophoresis (Monolith NT.115); lysate of HEK293 cells with GFP-beta-catenin mixed with increasing CT-HC-5 in the presence of bicelles; Hill fit

Sequence of GFP-tagged beta-catenin (P35222 whole entry): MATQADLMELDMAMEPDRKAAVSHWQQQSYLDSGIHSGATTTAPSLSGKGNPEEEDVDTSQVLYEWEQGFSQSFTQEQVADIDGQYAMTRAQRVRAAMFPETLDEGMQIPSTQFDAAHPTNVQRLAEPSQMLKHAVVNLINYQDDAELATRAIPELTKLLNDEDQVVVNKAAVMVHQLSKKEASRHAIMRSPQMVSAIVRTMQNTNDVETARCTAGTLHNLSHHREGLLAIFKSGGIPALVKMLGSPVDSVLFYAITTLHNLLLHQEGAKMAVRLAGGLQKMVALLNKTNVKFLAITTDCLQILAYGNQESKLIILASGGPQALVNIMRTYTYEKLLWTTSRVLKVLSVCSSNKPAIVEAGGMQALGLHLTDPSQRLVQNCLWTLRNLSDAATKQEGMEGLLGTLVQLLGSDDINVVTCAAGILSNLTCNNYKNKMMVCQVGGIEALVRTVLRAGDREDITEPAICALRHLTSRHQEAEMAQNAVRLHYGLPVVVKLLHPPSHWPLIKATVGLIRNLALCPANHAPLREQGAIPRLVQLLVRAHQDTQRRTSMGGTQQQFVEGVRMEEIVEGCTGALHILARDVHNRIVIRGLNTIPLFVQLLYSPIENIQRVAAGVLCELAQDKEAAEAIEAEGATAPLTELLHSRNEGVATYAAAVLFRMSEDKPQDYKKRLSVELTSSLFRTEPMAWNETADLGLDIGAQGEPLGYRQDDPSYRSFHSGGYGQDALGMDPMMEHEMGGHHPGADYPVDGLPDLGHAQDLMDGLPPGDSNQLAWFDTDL

B1: CT-HC-5 (peptide)
peptide: Palmitoyl-[dT][dR][dF][dL][dS][dS][dT][dL][dE][dV][dS][dL][dR][dK][dK]-NH2
SMILES: CCCCCCCCCCCCCCCC(=O)N[C@@H](C(=O)N[C@H](CCCNC(=N)N)C(=O)N[C@H](Cc1ccccc1)C(=O)N[C@H](CC(C)C)C(=O)N[C@H](CO)C(=O)N[C@H](CO)C(=O)N[C@@H](C(=O)N[C@H](CC(C)C)C(=O)N[C@H](CCC(=O)O)C(=O)N[C@@H](C(=O)N[C@H](CO)C(=O)N[C@H](CC(C)C)C(=O)N[C@H](CCCNC(=N)N)C(=O)N[C@H](CCCCN)C(=O)N[C@H](CCCCN)C(N)=O)C(C)C)[C@H](C)O)[C@H](C)O
B1 gave a Kd of 2700 nM.
